Laboratory results: doi:10.1101/2024.05.31.596772

Molecular target: microtubules (pig (purified from porcine brain))
Assay: co-sedimentation

CKK dimer (mRFP1-FKBP-CKK and mEGFP-FRB-CKK with rapamycin), sequence (Q80VC9 whole entry, looked up, one chain of several): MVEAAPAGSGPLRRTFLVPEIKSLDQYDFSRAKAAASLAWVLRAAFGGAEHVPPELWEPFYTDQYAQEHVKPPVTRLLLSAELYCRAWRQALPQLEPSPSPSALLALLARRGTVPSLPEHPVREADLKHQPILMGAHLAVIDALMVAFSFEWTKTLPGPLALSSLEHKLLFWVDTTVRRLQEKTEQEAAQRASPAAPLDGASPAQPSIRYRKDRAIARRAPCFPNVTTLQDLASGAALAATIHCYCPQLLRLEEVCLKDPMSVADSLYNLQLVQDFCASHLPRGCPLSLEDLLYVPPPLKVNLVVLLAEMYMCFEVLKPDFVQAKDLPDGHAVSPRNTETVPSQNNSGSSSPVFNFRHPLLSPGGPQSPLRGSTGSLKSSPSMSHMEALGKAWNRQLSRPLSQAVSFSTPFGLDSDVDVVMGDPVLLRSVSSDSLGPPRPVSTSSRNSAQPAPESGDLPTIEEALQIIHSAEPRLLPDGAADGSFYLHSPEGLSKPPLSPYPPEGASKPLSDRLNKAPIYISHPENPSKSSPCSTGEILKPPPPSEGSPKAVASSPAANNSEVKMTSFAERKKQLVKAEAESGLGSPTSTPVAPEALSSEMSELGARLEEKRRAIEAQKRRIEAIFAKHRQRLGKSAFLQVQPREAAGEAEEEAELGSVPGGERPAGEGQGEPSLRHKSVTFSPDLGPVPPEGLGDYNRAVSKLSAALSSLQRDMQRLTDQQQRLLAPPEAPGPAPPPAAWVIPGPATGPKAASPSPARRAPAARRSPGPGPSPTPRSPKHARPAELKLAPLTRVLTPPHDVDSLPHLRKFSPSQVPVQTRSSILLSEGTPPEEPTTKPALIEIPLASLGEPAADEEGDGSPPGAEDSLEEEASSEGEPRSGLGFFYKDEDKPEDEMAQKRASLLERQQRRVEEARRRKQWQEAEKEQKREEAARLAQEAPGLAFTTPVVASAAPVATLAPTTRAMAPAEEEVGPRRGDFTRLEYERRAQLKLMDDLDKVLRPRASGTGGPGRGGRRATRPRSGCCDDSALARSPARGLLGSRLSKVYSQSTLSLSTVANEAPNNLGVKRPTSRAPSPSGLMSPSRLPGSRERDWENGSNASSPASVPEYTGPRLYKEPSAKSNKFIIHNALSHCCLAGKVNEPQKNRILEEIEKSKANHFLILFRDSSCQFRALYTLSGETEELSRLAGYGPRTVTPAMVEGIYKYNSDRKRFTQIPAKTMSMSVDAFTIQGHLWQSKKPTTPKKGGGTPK

Kd: 147 nM
Substance: CKK dimer (mRFP1-FKBP-CKK and mEGFP-FRB-CKK with rapamycin) (from UniProt Q80VC9 1112-1246; Q80VC9 1112-1246) (complex)
